Test results from the supplement of paper PMC10065799, “High-throughput profiling of sequence recognition by tyrosine kinases and SH2 domains using bacterial peptide display” (eLife, 2023).

molecular target: c-Src SH2; experiment: SH2 binding enrichment of the phosphorylated peptide, bacterial display (enrichment ratio); higher = better substrate or ligand; peptides without Tyr show the background
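For SH2 binding enrichment of the phosphorylated peptide, bacterial display in this document: peptide library displayed on the E. coli surface as eCPX fusions, selected cells deep-sequenced, score is each peptide's frequency after selection divided by its frequency in the input.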
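For phosphorylation enrichment, bacterial display in this document: 11-residue human phosphosite peptides and single-mutation variants displayed on the E. coli surface, counted by deep sequencing, each peptide's frequency after selection divided by its frequency in the unselected input library; frequency after pTyr selection over input frequency; kinase dosed for 20-30% of maximal phosphorylation in three min.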

Going from QHNPEYVQQAS [LRRC7_Y1058] to SENPKYPEVGD [TMEM43_Y233], the SH2 binding enrichment falls from 0.561 to 0.482.

Going from TYEPNYGTVKR [RAPGEF6_Y1447_Q1452R] to SNFRAYATEPH [TNNI3_Y29_YF], the SH2 binding enrichment falls from 0.589 to 0.497.

First: IRGNMYFENSF [EGFR_Y112_YF]
Second: WKKEIYEESST [MOCS2_Y170]
The SH2 binding enrichment of the first is higher: 0.606 for the first, 0.448 for the second.

Compared with LGRGKSSEVFE [CSNK2A1_Y50_Y50S], KSMSVYCTPNK [ATP2A2_Y497] is higher in SH2 binding enrichment: 0.337 for the first, 0.948 for the second.

Going from VYAADYYKLLG [ROR2_Y645] to KDHPDYKYPPR [SOX10_Y171_Q174P], the SH2 binding enrichment falls from 0.789 to 0.637.

Going from ESDGAYIQRMQ [CCDC137_Y125_H127Q] to RDMNAYISPSP [MMAA_Y207_R209S], the SH2 binding enrichment rises from 0.468 to 0.567.

First: ARKRKYFKKHE [NFIX_Y40]
Second: HTEGEYSSLEH [IDH3B_Y171_Q166H]
The SH2 binding enrichment of the first is lower: 0.259 for the first, 0.9 for the second.

Compared with IGEGTSGVVYK [CDK2_Y15_Y15S], KLPDAYERLIL [G6PD_Y437] is higher in SH2 binding enrichment: 0.361 for the first, 2.48 for the second.

Going from HSGVSYYINLC [IGF2R_Y2024_N2020S] to KDHPDYKYQRR [SOX10_Y171_P175R], the SH2 binding enrichment rises from 0.533 to 0.829.

Going from QRRNVYYYSYL [PTEN_Y176_Y174N] to GDYLSYREFHL [ERBIN_Y1107_S1112L], the SH2 binding enrichment falls from 1.58 to 0.491.

First: DPTFGYEDFTR [SESN2_Y323]
Second: PGIRMYQVQYN [LRFN1_Y454]
The SH2 binding enrichment of the first is higher: 5.25 for the first, 1.02 for the second.

Compared with LESETYRRLLD [KRT12_Y429_I426S], IHHIDYYKETT [FGFR1_Y653_K656E] is higher in SH2 binding enrichment: 0.429 for the first, 1.08 for the second.

First: QRIHDYYEHRY [HCN4_Y554]
Second: LTSKPYAFTAQ [NDUFS1_Y236_R241Q]
The SH2 binding enrichment of the first is higher: 1.36 for the first, 0.692 for the second.

Going from ERMKVYVPIGF [EPHX1_Y393_T396I] to PTYEHYANSTQ [SLC12A3_Y70], the SH2 binding enrichment rises from 0.556 to 2.47.

First: DSSIRYLQEIF [FGG_Y135_YF]
Second: IDAICYFRMEN [NPHS2_Y194_YF]
The SH2 binding enrichment of the first is lower: 0.473 for the first, 0.703 for the second.

Going from TSYQMYDKGLV [IARS2_Y231_F227S] to EKKDVYKAGEQ [CFH_Y1008], the SH2 binding enrichment falls from 0.672 to 0.596.

LNPFIYSLRNW [OR1A2_Y288] was tested, and the SH2 binding enrichment was 1.79.

molecular target: SHP2-C SH2; experiment: as above

Going from QHNPEYVQQAS [LRRC7_Y1058] to SENPKYPEVGD [TMEM43_Y233], the SH2 binding enrichment falls from 0.64 to 0.594.

Compared with TYEPNYGTVKR [RAPGEF6_Y1447_Q1452R], SNFRAYATEPH [TNNI3_Y29_YF] is lower in SH2 binding enrichment: 0.785 for the first, 0.671 for the second.

Going from IRGNMYFENSF [EGFR_Y112_YF] to WKKEIYEESST [MOCS2_Y170], the SH2 binding enrichment falls from 1.05 to 0.535.

Compared with LGRGKSSEVFE [CSNK2A1_Y50_Y50S], KSMSVYCTPNK [ATP2A2_Y497] is higher in SH2 binding enrichment: 0.547 for the first, 0.686 for the second.

First: VYAADYYKLLG [ROR2_Y645]
Second: KDHPDYKYPPR [SOX10_Y171_Q174P]
The SH2 binding enrichment of the first is lower: 0.46 for the first, 0.961 for the second.

First: ESDGAYIQRMQ [CCDC137_Y125_H127Q]
Second: RDMNAYISPSP [MMAA_Y207_R209S]
The SH2 binding enrichment of the first is lower: 0.708 for the first, 0.715 for the second.

First: ARKRKYFKKHE [NFIX_Y40]
Second: HTEGEYSSLEH [IDH3B_Y171_Q166H]
The SH2 binding enrichment of the first is lower: 0.409 for the first, 0.862 for the second.

Going from IGEGTSGVVYK [CDK2_Y15_Y15S] to KLPDAYERLIL [G6PD_Y437], the SH2 binding enrichment rises from 0.562 to 0.723.

Compared with HSGVSYYINLC [IGF2R_Y2024_N2020S], KDHPDYKYQRR [SOX10_Y171_P175R] is higher in SH2 binding enrichment: 0.566 for the first, 1.17 for the second.

Going from QRRNVYYYSYL [PTEN_Y176_Y174N] to GDYLSYREFHL [ERBIN_Y1107_S1112L], the SH2 binding enrichment falls from 1.27 to 0.689.

Compared with DPTFGYEDFTR [SESN2_Y323], PGIRMYQVQYN [LRFN1_Y454] is higher in SH2 binding enrichment: 0.771 for the first, 1.37 for the second.

Going from LESETYRRLLD [KRT12_Y429_I426S] to IHHIDYYKETT [FGFR1_Y653_K656E], the SH2 binding enrichment falls from 0.911 to 0.635.

Going from QRIHDYYEHRY [HCN4_Y554] to LTSKPYAFTAQ [NDUFS1_Y236_R241Q], the SH2 binding enrichment falls from 1 to 0.906.

First: ERMKVYVPIGF [EPHX1_Y393_T396I]
Second: PTYEHYANSTQ [SLC12A3_Y70]
The SH2 binding enrichment of the first is higher: 0.909 for the first, 0.663 for the second.

Compared with DSSIRYLQEIF [FGG_Y135_YF], IDAICYFRMEN [NPHS2_Y194_YF] is higher in SH2 binding enrichment: 0.693 for the first, 0.89 for the second.

Compared with TSYQMYDKGLV [IARS2_Y231_F227S], EKKDVYKAGEQ [CFH_Y1008] is lower in SH2 binding enrichment: 0.759 for the first, 0.549 for the second.

LNPFIYSLRNW [OR1A2_Y288] gave an SH2 binding enrichment of 1.78.

molecular target: Grb2 SH2 (UniProt P62993); experiment: as above
Sequence (P62993 whole entry, looked up): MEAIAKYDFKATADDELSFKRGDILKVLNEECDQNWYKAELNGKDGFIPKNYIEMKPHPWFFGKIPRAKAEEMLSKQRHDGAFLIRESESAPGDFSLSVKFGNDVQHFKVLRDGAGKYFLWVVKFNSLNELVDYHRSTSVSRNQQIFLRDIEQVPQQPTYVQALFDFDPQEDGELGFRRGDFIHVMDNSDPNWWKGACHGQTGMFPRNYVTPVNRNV

Going from QHNPEYVQQAS [LRRC7_Y1058] to SENPKYPEVGD [TMEM43_Y233], the SH2 binding enrichment rises from 0.712 to 1.27.

Going from TYEPNYGTVKR [RAPGEF6_Y1447_Q1452R] to SNFRAYATEPH [TNNI3_Y29_YF], the SH2 binding enrichment falls from 0.803 to 0.717.

First: IRGNMYFENSF [EGFR_Y112_YF]
Second: WKKEIYEESST [MOCS2_Y170]
The SH2 binding enrichment of the first is higher: 0.895 for the first, 0.776 for the second.

First: LGRGKSSEVFE [CSNK2A1_Y50_Y50S]
Second: KSMSVYCTPNK [ATP2A2_Y497]
The SH2 binding enrichment of the first is lower: 0.65 for the first, 1.08 for the second.

Going from VYAADYYKLLG [ROR2_Y645] to KDHPDYKYPPR [SOX10_Y171_Q174P], the SH2 binding enrichment rises from 0.981 to 1.08.

First: ESDGAYIQRMQ [CCDC137_Y125_H127Q]
Second: RDMNAYISPSP [MMAA_Y207_R209S]
The SH2 binding enrichment of the first is lower: 0.731 for the first, 1.01 for the second.

Compared with ARKRKYFKKHE [NFIX_Y40], HTEGEYSSLEH [IDH3B_Y171_Q166H] is lower in SH2 binding enrichment: 0.911 for the first, 0.808 for the second.

Going from IGEGTSGVVYK [CDK2_Y15_Y15S] to KLPDAYERLIL [G6PD_Y437], the SH2 binding enrichment rises from 0.639 to 0.949.

Compared with HSGVSYYINLC [IGF2R_Y2024_N2020S], KDHPDYKYQRR [SOX10_Y171_P175R] is higher in SH2 binding enrichment: 0.722 for the first, 1.03 for the second.

Going from QRRNVYYYSYL [PTEN_Y176_Y174N] to GDYLSYREFHL [ERBIN_Y1107_S1112L], the SH2 binding enrichment falls from 0.955 to 0.84.

First: DPTFGYEDFTR [SESN2_Y323]
Second: PGIRMYQVQYN [LRFN1_Y454]
The SH2 binding enrichment of the first is lower: 0.821 for the first, 1.22 for the second.

First: LESETYRRLLD [KRT12_Y429_I426S]
Second: IHHIDYYKETT [FGFR1_Y653_K656E]
The SH2 binding enrichment of the first is higher: 0.915 for the first, 0.808 for the second.

Compared with QRIHDYYEHRY [HCN4_Y554], LTSKPYAFTAQ [NDUFS1_Y236_R241Q] is lower in SH2 binding enrichment: 1.01 for the first, 0.89 for the second.

Compared with ERMKVYVPIGF [EPHX1_Y393_T396I], PTYEHYANSTQ [SLC12A3_Y70] is higher in SH2 binding enrichment: 0.76 for the first, 1.75 for the second.

Going from DSSIRYLQEIF [FGG_Y135_YF] to IDAICYFRMEN [NPHS2_Y194_YF], the SH2 binding enrichment falls from 0.856 to 0.673.

First: TSYQMYDKGLV [IARS2_Y231_F227S]
Second: EKKDVYKAGEQ [CFH_Y1008]
The SH2 binding enrichment of the first is higher: 0.999 for the first, 0.954 for the second.

LNPFIYSLRNW [OR1A2_Y288] was tested, and the SH2 binding enrichment was 1.23.

molecular target: FGFR1 (UniProt P11362); experiment: phosphorylation enrichment, bacterial display (enrichment ratio); higher = better substrate or ligand; peptides without Tyr show the background
Sequence (P11362 whole entry, looked up): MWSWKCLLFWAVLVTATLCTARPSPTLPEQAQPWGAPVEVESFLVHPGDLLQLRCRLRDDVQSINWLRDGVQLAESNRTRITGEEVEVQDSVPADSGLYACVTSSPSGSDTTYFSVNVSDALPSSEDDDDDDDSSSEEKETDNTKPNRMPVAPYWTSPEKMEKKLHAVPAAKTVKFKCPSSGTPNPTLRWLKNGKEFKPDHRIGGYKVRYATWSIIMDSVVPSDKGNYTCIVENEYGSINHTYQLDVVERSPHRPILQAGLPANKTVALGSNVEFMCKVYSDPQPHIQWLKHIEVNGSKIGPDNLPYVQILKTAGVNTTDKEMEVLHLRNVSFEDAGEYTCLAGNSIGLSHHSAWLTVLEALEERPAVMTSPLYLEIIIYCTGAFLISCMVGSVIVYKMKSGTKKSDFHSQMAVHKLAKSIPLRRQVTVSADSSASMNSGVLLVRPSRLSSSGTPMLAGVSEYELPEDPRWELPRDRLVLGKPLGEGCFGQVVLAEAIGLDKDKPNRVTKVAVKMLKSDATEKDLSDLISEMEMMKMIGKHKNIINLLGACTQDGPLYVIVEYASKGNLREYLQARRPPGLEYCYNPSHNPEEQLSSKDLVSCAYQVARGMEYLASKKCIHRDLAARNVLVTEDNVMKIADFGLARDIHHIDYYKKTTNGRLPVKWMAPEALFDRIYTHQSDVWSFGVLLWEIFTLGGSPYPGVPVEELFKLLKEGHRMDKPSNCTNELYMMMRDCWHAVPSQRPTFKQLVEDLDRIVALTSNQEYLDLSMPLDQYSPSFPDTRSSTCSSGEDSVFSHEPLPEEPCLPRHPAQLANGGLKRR

Compared with QHNPEYVQQAS [LRRC7_Y1058], SENPKYPEVGD [TMEM43_Y233] is higher in phosphorylation enrichment: 0.486 for the first, 0.6 for the second.

Going from TYEPNYGTVKR [RAPGEF6_Y1447_Q1452R] to SNFRAYATEPH [TNNI3_Y29_YF], the phosphorylation enrichment rises from 0.391 to 0.53.

Compared with IRGNMYFENSF [EGFR_Y112_YF], WKKEIYEESST [MOCS2_Y170] is higher in phosphorylation enrichment: 0.514 for the first, 2.85 for the second.

First: LGRGKSSEVFE [CSNK2A1_Y50_Y50S]
Second: KSMSVYCTPNK [ATP2A2_Y497]
The phosphorylation enrichment of the first is lower: 0.438 for the first, 0.473 for the second.

Going from VYAADYYKLLG [ROR2_Y645] to KDHPDYKYPPR [SOX10_Y171_Q174P], the phosphorylation enrichment falls from 12.8 to 0.549.

First: ESDGAYIQRMQ [CCDC137_Y125_H127Q]
Second: RDMNAYISPSP [MMAA_Y207_R209S]
The phosphorylation enrichment of the first is lower: 0.385 for the first, 0.432 for the second.

Going from ARKRKYFKKHE [NFIX_Y40] to HTEGEYSSLEH [IDH3B_Y171_Q166H], the phosphorylation enrichment rises from 0.554 to 0.793.

First: IGEGTSGVVYK [CDK2_Y15_Y15S]
Second: KLPDAYERLIL [G6PD_Y437]
The phosphorylation enrichment of the first is lower: 0.299 for the first, 0.992 for the second.

Going from HSGVSYYINLC [IGF2R_Y2024_N2020S] to KDHPDYKYQRR [SOX10_Y171_P175R], the phosphorylation enrichment falls from 0.849 to 0.402.

Compared with QRRNVYYYSYL [PTEN_Y176_Y174N], GDYLSYREFHL [ERBIN_Y1107_S1112L] is lower in phosphorylation enrichment: 16.4 for the first, 5.4 for the second.

Compared with DPTFGYEDFTR [SESN2_Y323], PGIRMYQVQYN [LRFN1_Y454] is higher in phosphorylation enrichment: 0.481 for the first, 0.67 for the second.

First: LESETYRRLLD [KRT12_Y429_I426S]
Second: IHHIDYYKETT [FGFR1_Y653_K656E]
The phosphorylation enrichment of the first is higher: 0.784 for the first, 0.76 for the second.

Compared with QRIHDYYEHRY [HCN4_Y554], LTSKPYAFTAQ [NDUFS1_Y236_R241Q] is lower in phosphorylation enrichment: 15.7 for the first, 0.445 for the second.

Compared with ERMKVYVPIGF [EPHX1_Y393_T396I], PTYEHYANSTQ [SLC12A3_Y70] is higher in phosphorylation enrichment: 0.412 for the first, 0.492 for the second.

Compared with DSSIRYLQEIF [FGG_Y135_YF], IDAICYFRMEN [NPHS2_Y194_YF] is higher in phosphorylation enrichment: 0.632 for the first, 0.656 for the second.

Compared with TSYQMYDKGLV [IARS2_Y231_F227S], EKKDVYKAGEQ [CFH_Y1008] is lower in phosphorylation enrichment: 0.496 for the first, 0.434 for the second.

LNPFIYSLRNW [OR1A2_Y288] showed a phosphorylation enrichment of 0.644.
